# Like-named read-outs stand apart in the source and are kept apart here.
# B1: PLacO13: Synthetic IPTG-inducible promoter + RBS, SEQ ID NO: 148 (nucleic acid)
# DNA: TTACAAAGAAAATTCGACAAACTGTTATTTTTCTATCTATTTAAATTGTGAGCGGATAACAATTTGGGTGGGAAACTTTAGTTATGTACCTTTGTCGGCAATTGTGAGCGGATAACAATTAAATAAAGATATTCTCGTCAAACAAATATAAATAATATAAAC
# B2: PLacO23: Synthetic IPTG-inducible promoter + RBS, SEQ ID NO: 149 (nucleic acid)
# DNA: TTACAAAGAAAATTCGACAAACTGTTATTTTTCTATCTATTTATTTGAATTGTGAGCGGATAACAATTACCTTTGTCGGCAATTGTGAGCGGATAACAATTAAATAAAGATATTCTCGTCAAACAAATATAAATAATATAAAC
# B3: PBT0268: Arabinogalactan inducible promoter + RBS, SEQ ID NO: 146 (nucleic acid)
# DNA: TAAAATACACAAGTACGCGTCTTAATGGAAGATGCGTACTTTTCCATATATCAATGATCTATCCCATTTGAATGATTCCTGAACTTATATTGAACGATTTTTAGACCTGTTATAGTTAATAGCGATTATGGTCCAATTTTGGAAGTTTTTGAATGATTAGAGAACTTCTTTCTACTGGATAACTCGCACTTTTGTGACGCATTTGATGCACAACTAATACTTATTTGGTCTAAATAACTTTATAAATCTAATAGT
# B4: PBT3763: Rhamnose inducible promoter + RBS, SEQ ID NO: 144 (nucleic acid)
# DNA: TATTTCGGAGAAAACATGCATAAATCATGCTTTTTTTGCATAAAAAGTAAAATTTATACTGATGTAAGGTTTGGCTATGCAGATTTGTGTCAAAATGCACATCCTTTCTATCAAAATGCGTAAGGAAAAGGAGGAAGGAACCGCCTATCTTTGCAATGTAGGTAAATGGATACCTTAAATATATAGACAAAATACC
# B5: PBT3324: Chondroitin-sulfate inducible promoter + RBS, SEQ ID NO: 145 (nucleic acid)
# DNA: TATTTATAAGAGATAGCACATAATTTGAACTATTTTGTACGATTTGAACCCCTCTTTCCAACAAAAGAGGGGTTTCTTTGCATTCGGGAGAAGAACAAGTGATCTCTCTCTGTAAATACCGGCTAATGATAAACCGATTTACCATCGGACCTAAAACGATATATTCTATGATAAAGCAATCTTTTACTCTGTCAGTGACA
# Legend:
# [1] = tested on: B. thetaiotaomicron; assay: Minimum inhibitory concentration of polymyxin B with CRISPRi against BT1854; format: cell-based
# From the text: FIGS. 4A-4F. CRISPRi-mediated repression of recombinant and endogenous genes. (FIG. 4A) Schematic of dCas9-based repression of NanoLuc. LacI^Q is expressed from PBT1311 and represses transcription from the PLacO23 promoter. Addition of IPTG inactivates LacI^Q to allow expression of dCas9 from PLacO23 dCas9 complexes with guide RNA (sgRNA) constitutively expressed from the P1 promoter to prevent the transcription of NanoLuc from the PcfiA promoter. Guide RNAs were designed to target the coding sequence of NanoLuc (NL1-4) or the PcfiA promoter (PR1-2). (FIG. 4B) Response curves of dCas9-mediated targeting the coding sequence of NanoLuc (NL1-4), the promoter (PR1-2) or a nonsense sequence (NS). Fourfold serial dilutions of IPTG starting at 500 μM or no inducer were added to cultures. Response curves were fit to a Hill Function (solid lines). (FIG. 4C) Fold repression elicited by various gRNAs in the presence (500 μM) of inducer. Bars are colored to correspond to part B. (FIG. 4D) Genomic location of endogenous genes targeted using CRISPRi. […]
# Resistance to inflammation-associated cationic antimicrobial peptides, such as polymyxin B, is essential for the stability of commensal organisms in the dynamic gut environment. […] Using the minimum inhibitory concentration (MIC) of polymyxin B as a phenotypic readout, an sgRNA was designed to specifically suppress BT1854 expression.
# [2] = tested on: NanoLuc; assay: Response curves of inducible promoters driving NanoLuc; format: cell-based, B. thetaiotaomicron; details: for change in gene expression on induction: IPTG induction
# Description: FIGS. 2A-2E. Design and characterization of genetic sensors. (FIGS. 2A-2D) Response curves for NanoLuc under the regulated control of the rhamnose—(Rha) (FIG. 2A), chondroitin sulfate—(ChS) (FIG. 2B), arabinogalactan—(AG) (FIG. 2C), or IPTG—(FIG. 2D) inducible promoters. LacO1 operator sites were inserted in various regions (O1, O2, O3) of the PcfxA promoter (see also FIGS. 7A-7B). Inducer concentrations were applied as follows: three-fold serial dilutions starting at 10 mM Rha (FIG. 2A); three-fold serial dilutions starting at 0.4% for ChS (FIG. 2B) and AG (FIG. 2C); and four-fold serial dilutions starting at 500 μM for IPTG (FIG. 2D). The leftmost data point in each plot represents the background luminescence in the absence of inducer. Response curves were fit to a Hill function (solid lines). (FIG. 2E) Orthogonality matrix of sugar-inducible genetic systems incubated with 10 mM rhamnose (Rha), 0.2% chondroitin sulfate (ChS), 0.2% arabinogalactan (AG), or 100 mM IPTG compared to no inducer. Error bars represent the standard deviation of three biological replicates made on different days.
# FIGS. 7A-7B. Synthetic IPTG-inducible promoters. (FIG. 7A) Synthetic IPTG-inducible promoters were constructed by placing LacO1 operator sites (red) upstream of the −33 element (O1), between the −33 and −7 elements (O2) and/or directly downstream of the transcription start site (O3) of the strong PcfxA promoter. Predicted −33, −7 and +1 sites are shown in bold. These promoters are regulated by the E. coli LacIQ repressor expressed from PBT1311. FIG. 7A depicts SEQ ID NOs: 217 to 220 from top to bottom, respectively. (FIG. 7B) Response curves for the synthetic IPTG-inducible systems. Cells were incubated with no inducer or four-fold serial dilutions of IPTG starting at 500 μM. Data sets for PLacO13 and PLacO23 were fit to a Hill function (solid line). Error bars represent the standard deviation of three biological replicates made on three different days (n=3).
# To create inducible systems for use in B. thetaiotaomicron, parts from a large repertoire of systems that govern carbohydrate utilization were used, which included cytoplasmic transcription factors, extracytoplasmic function sigma/anti-sigma pairs, and hybrid two-component systems (HTCS), among others (64). In B. thetaiotaomicron, rhamnose metabolism is mediated by the AraC/XylS-family transcriptional activator, RhaR, which activates transcription at the PBT3763 promoter (Patel E H, et al. Res. Microbiol. 159:678-84, 2008). To assay the functionality of PBT3763 as an inducible system, 250 bp of the promoter-RBS region was cloned upstream of the start codon of BT3763 into the pNBU2 expression vector to drive expression of NanoLuc.
# Two-component systems are signal-transduction mechanisms widespread in bacteria for sensing external stimuli. […] Putative HTCSs, BT3334 and BT0267, were identified in transcriptomic studies to control expression of the chondroitin sulfate (ChS)-inducible PBT3324 promoter and arabinogalactan (AG)-inducible PBT0268 promoter, respectively (64, 83). The promoter regions upstream of the BT3324 and BT0268 genes were used as the basis for two polysaccharide sensors. Chondroitin sulfate induction of PBT3324 and arabinogalactan induction PBT0268 led to a 60-fold and 29-fold regulation of output gene expression, respectively (FIGS. 2B and 2C).
# Next, an IPTG-inducible system was developed. Pairs of LacO1 operator sites were inserted in the strong PcfxA promoter in three locations: upstream of the −33 element (O1), between the −33 and −7 elements (O2) or just downstream of the transcription start site (O3) (FIGS. 7A-7B). The LacI^Q repressor was expressed from the strong BT1311 promoter to achieve tight control of NanoLuc expression. Compared to the unmodified PcfxA promoter, the addition of synthetic operator sites diminished the maximum expression of NanoLuc (FIGS. 7A-7B). […]
# [3] = tested on: NanoLuc; assay: Luciferase activity in fecal pellets of mice colonized with arabinogalactan-inducible P0268 strain; format: in vivo, Swiss Webster mice
# Description: FIGS. 5A-5D. In vivo function of genetic parts within B. thetaiotaomicron colonizing the mouse gut. (FIG. 5A) Experimental timeline. Specific pathogen free (SPF) Swiss Webster mice were treated for 10 days with ciprofloxacin and metronidazole and gavaged with B. thetaiotaomicron 2 days after cessation of treatment. […] Mice were provided drinking water supplemented with 5% arabinogalactan (FIG. 5B: solid line), or 25 mM IPTG (FIG. 5C: solid line) after stool collection on Day 2 (grey box), or were maintained on normal drinking water throughout the entire experiment (dashed lines). Inducer water was removed on Day 4 after stool collection. Grey boxes indicate the period of time that mice were exposed to inducer-supplemented drinking water. Luminescence values were normalized to cell density as determined by qPCR using NanoLuc-specific primers. (FIG. 5D) SPF mice were colonized with B. thetaiotaomicron containing the rhamnose-inducible integrase construct P3763-rpiL*C51-Int12. […] Absolute quantities of flipped and unflipped memory array in fecal DNA were determined by qPCR using standard curves (Experimental Procedures). Recombination frequency is expressed as the ratio of cells containing a flipped memory array (Flipped) divided by the sum total of cells containing a flipped or unflipped array (Total). […]
# [4] = IPTG inducer, LacIQ expressed from BT1311 promoter, read-out: threshold K
molecule,measurement,setting,value
polymyxin B,decrease in MIC compared to WT and dCas9NS control,"[1]; dCas9BT1854 cells, dCas9 induced with IPTG",8 to 16 fold
same,polymyxin B resistance,"[1]; dCas9NS strains, presence or absence of IPTG induction, similar to WT",high levels of polymyxin B resistance
B1,EC50,[2]; [4],86 µM
same,change in gene expression on induction,[2],8 fold
B2,EC50,[2]; [4],6 µM
same,change in gene expression on induction,[2],22 fold
B3,luciferase activity after removal of inducer from drinking water,[3]; fecal pellets,rapidly returned to baseline
same,increase of luciferase activity in fecal pellets,[3]; within a day of arabinogalactan in drinking water,approximately 75 fold
same,regulation of output gene expression,[2]; arabinogalactan induction,29 fold
B4,Hill coefficient n,[2]; rhamnose inducer,1.4
same,EC50,"[2]; rhamnose inducer, read-out: threshold K (Hill function fit)",300 µM
same,output dynamic range,"[2]; rhamnose induction, NanoLuc",104 fold
B5,regulation of output gene expression,[2]; chondroitin sulfate induction,60 fold

# Reference: patent US11591604B2, “Gene expression in Bacteroides” (Massachusetts Institute of Technology, priority 2015, dated 2023)
